Results taken from publication PMC9082959, “Mechanism of Assembly of the Non-Covalent Spectrin Tetramerization Domain from Intrinsically Disordered Partners” (Journal of molecular biology, 2013).
Positions count from the first letter of the chain named.

Legend:
Assay in all cases: ITC; β16β17 at 25–50 μM in the cell titrated with 15–20 injections to 2–2.5 eq of α0α1; one-site binding model; PBS (50 mM sodium phosphate, 150 mM NaCl, pH 7.04), 25 °C; mutants only against the wild-type partner
Conditions in all cases: both partners purified
β16β17 Q25A = biological target: T1, β16β17 Q25A (human, UniProt P11277 1898-2083, Q2028A)
T1 construct: erythrocyte β-spectrin, human, residues 1898-2083 (β16β17); mutant of m2; also called Q2028A; source: E. coli C41(DE3), purified (Ni2+ agarose, thrombin cleavage, gel filtration)
T1 sequence (looked up): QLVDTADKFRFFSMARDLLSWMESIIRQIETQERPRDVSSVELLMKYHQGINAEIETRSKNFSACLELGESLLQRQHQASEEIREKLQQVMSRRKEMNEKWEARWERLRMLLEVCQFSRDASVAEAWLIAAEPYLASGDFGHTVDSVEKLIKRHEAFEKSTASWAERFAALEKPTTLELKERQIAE

β16β17 A18G = biological target: T2, β16β17 A18G (human, UniProt P11277 1898-2083, A2021G)
T2 construct: erythrocyte β-spectrin, human, residues 1898-2083 (β16β17); mutant of m2; also called A2021G; source: E. coli C41(DE3), purified (Ni2+ agarose, thrombin cleavage, gel filtration)
T2 sequence (looked up): T1 sequence (looked up) with A124G, A131Q

β16β17 A15G = biological target: T3, β16β17 A15G (human, UniProt P11277 1898-2083, A2018G)
T3 construct: erythrocyte β-spectrin, human, residues 1898-2083 (β16β17); mutant of m2; also called A2018G; source: E. coli C41(DE3), purified (Ni2+ agarose, thrombin cleavage, gel filtration)
T3 sequence (looked up): T1 sequence (looked up) with A121G, A131Q

β16β17 F11A = biological target: T4, β16β17 F11A (human, UniProt P11277 1898-2083, F2014A)
T4 construct: erythrocyte β-spectrin, human, residues 1898-2083 (β16β17); mutant of m2; also called F2014A; source: E. coli C41(DE3), purified (Ni2+ agarose, thrombin cleavage, gel filtration)
T4 sequence (looked up): T1 sequence (looked up) with F117A, A131Q

β16β17 V41A = biological target: T5, β16β17 V41A (human, UniProt P11277 1898-2083, V2044A)
T5 construct: erythrocyte β-spectrin, human, residues 1898-2083 (β16β17); mutant of m2; also called V2044A; source: E. coli C41(DE3), purified (Ni2+ agarose, thrombin cleavage, gel filtration)
T5 sequence (looked up): T1 sequence (looked up) with A131Q, V147A

Ka (β16β17 Q25A): 120000 M⁻¹
Ka (β16β17 A18G): 130000 M⁻¹
Ka (β16β17 A15G): 6000 M⁻¹
Ka (β16β17 F11A): 6000 M⁻¹
Ka (β16β17 V41A): 420000 M⁻¹
B1: α0α1 (erythrocyte α-spectrin residues 2–163), wild type (domain or fragment, human, UniProt P02549 2-163, looked up)
chain: EQFPKETVVESSGPKVLETAEEIQERRQEVLTRYQSFKERVAERGQKLEDSYHLQVFKRDADDLGKWIMEKVNILTDKSYEDPTNIQGKYQKHQSLEAEVQTKSRLMSELEKTREERFTMGHSAHEETKAHIEELRHLWDLLLELTLEKGDQLLRALKFQQY
notes: synthetic gene (GenScript) in a modified pRSETA plasmid; also called α1α0; source: E. coli C41(DE3), purified (Ni2+ agarose, thrombin cleavage, gel filtration)
